Measurements reported in patent publication US20250129140A1, “ANTI-HCMV ANTIBODIES AND ANTIGEN-BINDING FRAGMENTS THEREOF” (ICAHN SCHOOL OF MEDICINE AT MOUNT SINAI, priority 2021, published 2025).

Columns and labels:
[1] = system: HCMV; test: Virus neutralization, summary statements across cell types and strains; format: cell-based, Human cytomegalovirus; settings: MRC5; TB40/E, AD169R, TR, Towne
Experimental: AD169R^BADrUL131, TB40E, TR, or Towne was pre-incubated with monoclonal antibodies (starting dilution of 100 μg/mL antibody) was diluted using 5 fold dilutions to achieve a final range of 50-0.016 μg/mL antibody after addition to 25 μL of media containing virus; final MOI 0.2) and incubated at 4° C. for 1 hr before the inoculum was added to the appropriate cell types (ARPE-19, HTR-svNeo, MRC5, or NHDF cells at 10,000 cells per well) for 2 hrs at 37° C., 5% CO2. Following infection, the inoculum was removed and replaced with 100 μL complete DMEM/F-12 media before an overnight incubation at 37° C., 5% CO2.
Cells were fixed using 4% paraformaldehyde (PFA) for 20 minutes at room temp. Cells were then permeabilized using 0.3% Triton X-100 (Thermo Fisher, #HFH10) in PBS and stained with an affinity-purified, polyclonal rabbit anti-IE1-1/2 (0.7 ng/ml) primary and an anti-rabbit Alexa Fluor 647 (1:1000) secondary. To quantify total cells per well, Hoechst (Molecular Probes, #H3570) was diluted 1:100,000 in PBS and incubated with cells for 20 minutes at room temp. Virus neutralization was quantified using a Celigo cytometer (Nexelcom Bioscience). Percent infection was calculated using ((#IE1-1+)/(#Hoechst+))*100 events per well and normalized to the percent infection when an irrelevant, non-neutralizing, or no antibody was used.
The student's unpaired, two tailed t tests were performed using the GraphPad Prism software (La Jolla, CA). An asterisk identifies statistical significance of P<0.05 or less.

[2] = system: recombinant HCMV pentamer (strain VR1814) consisting of gH, gL, UL128, UL130 and UL131A; test: Biolayer interferometry (Octet RED) KD determination; format: binding, Human cytomegalovirus
Experimental: Biolayer interferometry assays were performed using the Octet RED instrument (ForteBio, Inc.) to determine the association (kon) and dissociation (kdis) constants for each antibody. Purified monoclonal antibody was loaded onto the anti-mouse Fc IgG capture (AMC) biosensors using 5-fold dilutions (50-0.016 μg/mL in PBS) for 10 minutes. To determine the kon, the sensors were exposed to the recombinant HCMV pentamer (strain VR1814) consisting of gH, gL, UL128, UL130 and UL131A (Native Antigen, CMV-PENT-100) at a constant concentration of 100 μg/mL in PBS for 3 minutes. To determine the kdis, dissociation was measured over the course of 3 minutes while the sensors were in PBS buffer. KD values were calculated as a ratio of […].
To examine this further, 293 Expi cells were transfected with wildtype gH, wildtype gL, cotransfected with gH and gL (gH+gL), transfected with a single plasmid expressing both gH and gL (gH/gL) or co-transfected a variety of gH mutants and gL. Three days post transfection the cells were harvested and stained with unlabeled primary at 0.5 μg/mL using the antibodies indicated. Transfection efficiency was determined by measuring GFP expression on day 3 and binding was determined by percent Alexa Fluor 647 positive cells using a conjugated secondary. […] The binding profile for 1G9 is most similar to 10F8. Although the ratios of gH, gL and gO plasmid were 1:1:1 it is not certain how efficiently the trimer was assembled following transfection. […] To discern minute differences in antibody binding biolayer interferometry was used, immobilizing each of the purified monoclonal antibodies (50-0.016 μg/mL) onto anti-mouse IgG Fc capture (AMC) biosensors and exposing the sensors to recombinant pentamer (100 μg/mL).

[3] = system: TB40/E UL32-eGFP virus; test: Virus attachment assay on ARPE-19 cells; format: cell-based, Human cytomegalovirus; settings: 10 μg/mL, 0 or 120 minutes
Experimental: ARPE-19 cells were plated in glass bottom 12 well plates the day before infection. […] Infection occurred at 37° C. for 0-2 hrs before cells were washed using a citrate wash buffer (pH 3.2) for two minutes at RT. Cells were then washed with PBS and fixed in 4% PFA for 20 minutes at RT before being stained with Hoechst. Plates were read using a Cytation 3 Cell Imaging Multi-Mode Reader (BioTek, Winooski, VT) and images were acquired using brightfield and the 405 and 488 nm lasers.
To visualize HCMV virion attachment and entry, a recombinant HCMV strain was used that expresses eGFP fused to the C terminus of the tegument protein pUL32. The tegument protein is tightly associated with the capsid and allows for visualization of virus entry by immunofluorescence. […] Cells were incubated with the virus/antibody for either 0 or 120 minutes before being washed with citrate buffer (pH 3.2) for two minutes and fixed with PFA.

[4] = system: HCMV AD169R; test: FFU assay in ARPE-19 cells in combination with ganciclovir; format: cell-based, Human cytomegalovirus; settings: combined with ganciclovir (2.5 μM); antibody 10 μg/mL; Day 12
Experimental: Relative number of plaques present 12 dpi in ARPE-19 cells infected with AD169R. Infection was performed in the presence of antibody at three different concentrations +/−ganciclovir (2.5 μM). On day 12 post infection GFP images were taken and the plaque number was calculated relative to virus alone controls on each plate. M2E10 and CytoGam® were used as negative and positive controls respectively. Each condition was done in triplicate and 10,000 μm^2 was used as a cutoff for plaque area.
ARPE-19 or NHDF cells were plates at 50,000 cells per well in a 24 well and infected the following day. TB40/E (MOI 0.01) and AD169RBAD^rUL131 (MOI 0.1 & 0.01) was incubated with either 10 μg/mL or 0.5 μg/mL of antibody one hour prior to addition to cells. Following a 2 hr incubation at 37° C., 5% CO2 the inoculum was removed, and cells were overlaid with 1% low melt temperature sea agarose overlay. The overlay was allowed to solidify at room temp and then 500 μL of media was added before cells were put back into the incubator. […]
To test efficacy of the gH antibodies in combination with ganciclovir, the FFU assay was performed in ARPE-19 cells. […] M2E10 and CytoGam® were used as negative and positive controls respectively and the relative number of plaques was calculated based on cells which received virus alone without any antibody (black bar for each graph). […]

[5] = system: HCMV AD169R; test: Neutralization by fully human versus chimeric antibody versions; format: cell-based, Human cytomegalovirus; settings: fully human (hu) version, human IgG1 Fc
Experimental: Increasing concentrations of monoclonal antibodies (0.016-50 μg/mL) were incubated with AD169R (MOI 0.2) to assess neutralizing capacity. Percent infection was quantified using GFP expression at 18 hpi and normalized based on infection with virus alone (no antibody). CMV hyperimmune globulin (CytoGam®) was used as a control (trace on the upper right in FIGS. 8A, 8B, 8C, and 8D). FIG. 8A. […] FIG. 8B. Fully human (hu, comprising human variable and human constant regions) and chimeric (ms, comprising human variable and murine constant regions) versions of 9A12. FIG. 8C. Fully human (hu, comprising human variable and human constant regions) and chimeric (ms, comprising human variable and murine constant regions) versions of 13G1. FIG. 8D. Fully human (hu, comprising human variable and human constant regions) and chimeric (ms, comprising human variable and murine constant regions) versions of 14E1.
For this, the mouse Fc region of these mAbs was replaced with the human IgG1 Fc region.

B1: 15G11: anti-HCMV gH/gL monoclonal antibody, fusion 1; VH SEQ ID NO:52, VL SEQ ID NO:53; chimeric and fully human IgG1 versions (antibody, V domains shown)
VH: QVQLQESGPGLVKPSQTLSLTCTVSGGSISSGYYYWNWIRQHPGKGLECIGYIYYSGTTYYNPSLKSRLFISVDTSKNQFSLKLRSVTAADTAVYYCARGGLGAFDIWGQGTMVTVSS
VL: EIVLTQSPGTLSLSPGERATLSCRASQSVSSSYLAWYQQKPGQAPRLLIYGASSRAPGIPDRFSGTGSGTDFTLTISRLEPEDFAVYYCQQYGISPLTFGGGTKVEIK
modifications: IgG1 constant regions
notes: anti-HCMV gH/gL monoclonal antibody, fusion 1; chimeric and fully human IgG1 versions
neutralization of infection across all strains [1]: consistently neutralized infection
kdis ([2]; dissociation 3 minutes in PBS): 8.69e-05 s⁻¹
rank of binding constant within the panel ([2]; recombinant pentamer): strongest
number of virions bound to the cells [3]: did not significantly change
reduction in plaques [4]: 95%
IC50 of infection, version with human constant regions [5]: 0.37 µg/mL
